The values below come from the supplement of paper PMC10567573.

The chains are these.
B1: ZNF511 (parent)
chain: HLYPADFRFDKPKKSRSPASAEAP
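Note: lentivirally expressed fusions sorted by FACS into six bins by GFP to DsRed ratio, PSI derived from sequencing read proportions per bin multiplied by bin number.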

The variants in this data set derive from B1. Kind of data set: protein stability index of a GFP-peptide fusion (GPS, HEK-293T) (PSI 1-6); higher = more stable. The following applies: c terminus: a fixed tail appended.
For the variant HLYPADFRFDKPKKSRSPACAEAP [S20C], the protein stability index was determined as 2.92. To HLYPADFRFDKPKKSRSPAHAEAP [S20H] belongs 2.69; to HLYPADFRFDKPKKSRSPATAEAP [S20T], 3.07; to HLYPADFRFDKPKKSRSPAEAEAP [S20E], 2.78. As to HLYPADFRFDKPKKSRSPAFAEAP [S20F], the protein stability index turned out to be 2.22.

Turning to HLYPADFRFDKPKKSRSPAPAEAP [S20P], the protein stability index worked out at 2.72. To HLYPADFRFDKPKKSRSPAIAEAP [S20I] belongs 2.64; to HLYPADFRFDKPKKSRSPAVAEAP [S20V], 2.82; to HLYPADFRFDKPKKSRSPADAEAP [S20D], 2.97. To HLYPADFRFDKPKKSRSPAGAEAP [S20G] belongs 2.85; to HLYPADFRFDKPKKSRSPAMAEAP [S20M], 2.68; to HLYPADFRFDKPKKSRSPAAAEAP [S20A], 3.32.

Regarding HLYPADFRFDKPKKSRSPAKAEAP [S20K], the protein stability index was 2.71. To HLYPADFRFDKPKKSRSPAYAEAP [S20Y] belongs 2.61. To HLYPADFRFDKTKKSRSPASAEAP [P12T] belongs 3.7; to HLYPADFRFDKVKKSRSPASAEAP [P12V], 2.8. To HLYPADFRFDKYKKSRSPASAEAP [P12Y] belongs 2.94; to HLYPADFRFDKWKKSRSPASAEAP [P12W], 3.02; to HLYPADFRFDKPKKSRSPASQEAP [A21Q], 3.67. As to HLYPADFRFDKPKKSRSPASMEAP [A21M], the protein stability index was found to be 3. To HLYPADFRFDKPKKSRSPASREAP [A21R] belongs 2.84. For HLYPADFRFDKPKKSRSPASCEAP [A21C], the protein stability index worked out at 3.1. To HLYPADFRFDKPKKSRSPASPEAP [A21P] belongs 3.11; to HLYPADFRFDKPKKSRSPASWEAP [A21W], 2.28; to HLYPADFRFDKPKKSRSPASDEAP [A21D], 2.72. To HLYPADFRFDKPKKSRSPASHEAP [A21H] belongs 3.12; to HLYPADFRFDKPKKSRSPASSEAP [A21S], 3.4. In the case of HLYPADFRFDKPKKSRSPASLEAP [A21L], the protein stability index is 2.38.

Turning to HLYPADFRFDKPKKSRSPASFEAP [A21F], the protein stability index is 3.18. To HLYPADFRFDKPKKSRSPASIEAP [A21I] belongs 2.82; to HLYPADFRFDKPKKSRSPASEEAP [A21E], 3.08.

Take HLYPADFRFDKPKKSRSPASYEAP [A21Y]: the protein stability index stood at 2.95. To HLYPADFRFDKPKKSRSPASGEAP [A21G] belongs 3; to HLYPADFRFDKPKKSRSPASTEAP [A21T], 2.75.

On to HLYPADFRFDKPKKSRSPASKEAP [A21K], for which the protein stability index came out at 2.81. To HLYPADFRFDKPKKSRSPASNEAP [A21N] belongs 2.96; to HLYPADFRFDKPKKSRSPASVEAP [A21V], 2.71; to HLYPADFRFDKPKKSQSPASAEAP [R16Q], 3.28. To HLYPADFRFDKPKKSWSPASAEAP [R16W] belongs 3.05.

As for HLYPADFRFDKPKKSISPASAEAP [R16I], the protein stability index was 2.6. To HLYPADFRFDKPKKSMSPASAEAP [R16M] belongs 3.28; to HLYPADFRFDKPKKSDSPASAEAP [R16D], 3.18. To HLYPADFRFDKPKKSVSPASAEAP [R16V] belongs 2.51. To HLYPADFRFDKPKKSCSPASAEAP [R16C] belongs 2.54; to HLYPADFRFDKPKKSYSPASAEAP [R16Y], 2.13; to HLYPADFRFDKPKKSASPASAEAP [R16A], 3.51.

HLYPADFRFDKPKKSPSPASAEAP [R16P]: the protein stability index is 3.2. To HLYPADFRFDKPKKSTSPASAEAP [R16T] belongs 3.44; to HLYPADFRFDKPKKSGSPASAEAP [R16G], 3.29; to HLYPADFRFDKPKKSKSPASAEAP [R16K], 3.36. To HLYPADFRFDKPKKSESPASAEAP [R16E] belongs 3.34.

On to HLYPADFRFDKPKKSNSPASAEAP [R16N], for which the protein stability index turned out to be 3.17. To HLYPADFRFDKPKKSFSPASAEAP [R16F] belongs 2.73; to HLYPADFRFDKPKKSHSPASAEAP [R16H], 3.13; to HLYPADFRFDKPKKSSSPASAEAP [R16S], 2.76.

With HLYPADFRFDKPKKSLSPASAEAP [R16L], the protein stability index stood at 2.97. With HLYPADFRFDKPDKSRSPASAEAP [K13D], the protein stability index amounted to 3.04. To HLYPADFRFDKPHKSRSPASAEAP [K13H] belongs 2.78; to HLYPADFRFDKPSKSRSPASAEAP [K13S], 2.91; to HLYPADFRFDKPGKSRSPASAEAP [K13G], 2.92.

As for HLYPADFRFDKPTKSRSPASAEAP [K13T], the protein stability index is 3.18. To HLYPADFRFDKPAKSRSPASAEAP [K13A] belongs 3.07; to HLYPADFRFDKPEKSRSPASAEAP [K13E], 3.34.

Take HLYPADFRFDKPQKSRSPASAEAP [K13Q]: the protein stability index was 3.4. To HLYPADFRFDKPPKSRSPASAEAP [K13P] belongs 3.64; to HLYPADFRFDKPNKSRSPASAEAP [K13N], 2.7. In the case of HLYPADFRFDKPFKSRSPASAEAP [K13F], the protein stability index is 2.7. To HLYPADFRFDKPMKSRSPASAEAP [K13M] belongs 2.84; to HLYPADFRFDKPVKSRSPASAEAP [K13V], 2.22. To HLYPADFRFDKPWKSRSPASAEAP [K13W] belongs 2.58; to HLYPADFRFDKPLKSRSPASAEAP [K13L], 2.94. Turning to HLYPADFRFDKPRKSRSPASAEAP [K13R], the protein stability index came out at 3.2. To HLYPADFRFDKPYKSRSPASAEAP [K13Y] belongs 3.56; to HLYPADFRFDKPIKSRSPASAEAP [K13I], 3. To HLYPADFRFDKPCKSRSPASAEAP [K13C] belongs 2.8. Take HLYPADFRFDKPKKLRSPASAEAP [S15L]: the protein stability index was 2.92. To HLYPADFRFDKPKKPRSPASAEAP [S15P] belongs 3.19. To HLYPADFRFDKPKKARSPASAEAP [S15A] belongs 3.39. To HLYPADFRFDKPKKNRSPASAEAP [S15N] belongs 2.67; to HLYPADFRFDKPKKQRSPASAEAP [S15Q], 3.19. Turning to HLYPADFRFDKPKKDRSPASAEAP [S15D], the protein stability index was determined as 3.35. To HLYPADFRFDKPKKCRSPASAEAP [S15C] belongs 2.56.

As for HLYPADFRFDKPKKTRSPASAEAP [S15T], the protein stability index was 2.4.

As for HLYPADFRFDKPKKKRSPASAEAP [S15K], the protein stability index came out at 3.24. To HLYPADFRFDKPKKYRSPASAEAP [S15Y] belongs 2.51; to HLYPADFRFDKPKKVRSPASAEAP [S15V], 2.36; to HLYPADFRFDKPKKMRSPASAEAP [S15M], 2.88. To HLYPADFRFDKPKKRRSPASAEAP [S15R] belongs 1.78; to HLYPADFRFDKPKKERSPASAEAP [S15E], 3.18; to HLYPADFRFDKPKKHRSPASAEAP [S15H], 2.93. On to HLYPADFRFDKPKKIRSPASAEAP [S15I], for which the protein stability index came to 3.23. As to HLYPADFRFDKPKKWRSPASAEAP [S15W], the protein stability index turned out to be 1.93. HLYPADFRFDKPKKGRSPASAEAP [S15G]: the protein stability index is 2.86. To HLYPADFRFDKPKKFRSPASAEAP [S15F] belongs 3.04.
